# Key:
# [1] = system: Peripheral blood mononuclear cells (PBMC); test: Cytokine induction in an in vitro human blood cell system (IFN-α and TNF-α secreted into culture media); type: cell-based; details: 18 to 24 hours; for Minimum Effective Concentration (µM) IFN-α: lowest tested concentration inducing IFN-α over fixed level (usually 20 pg/mL); for Minimum Effective Concentration (µM) TNF: lowest tested concentration inducing TNF-α over fixed level (usually 40 pg/mL)
# Text: An in vitro human blood cell system is used to assess cytokine induction. Activity is based on the measurement of interferon (α) and tumor necrosis factor (α) (IFN-α and TNF-α, respectively) secreted into culture media as described by Testerman et. al. in “Cytokine Induction by the Immunomodulators Imiquimod and S-27609,” Journal of Leukocyte Biology, 58, 365-372 (September, 1995).
# Whole blood from healthy human donors is collected by venipuncture into vacutainer tubes or syringes containing EDTA. Peripheral blood mononuclear cells (PBMC) are separated from whole blood by density gradient centrifugation using HISTOPAQUE-1077 (Sigma, St. Louis, Mo.) or Ficoll-Paque Plus (Amersham Biosciences Piscataway, N.J.). Blood is diluted 1:1 with Dulbecco's Phosphate Buffered Saline (DPBS) or Hank's Balanced Salts Solution (HBSS). Alternately, whole blood is placed in Accuspin (Sigma) or LeucoSep (Greiner Bio-One, Inc., Longwood, Fla.) centrifuge frit tubes containing density gradient medium. The PBMC layer is collected and washed twice with DPBS or HBSS and re-suspended at 4×10^6 cells/mL in RPMI complete. The PBMC suspension is added to 96 well flat bottom sterile tissue culture plates containing an equal volume of RPMI complete media containing test compound.
# The compounds are solubilized in dimethyl sulfoxide (DMSO). The DMSO concentration should not exceed a final concentration of 1% for addition to the culture wells. The compounds are generally tested at concentrations ranging from 30-0.014 μM. Controls include cell samples with media only, cell samples with DMSO only (no compound), and cell samples with reference compound. […]
# Following incubation the plates are centrifuged for 10 minutes at 1000 rpm (approximately 200×g) at 4° C. […] The samples are analyzed for IFN-α by ELISA and for TNF-α by IGEN/BioVeris Assay.
# IFN-α concentration is determined with a human multi-subtype calorimetric sandwich ELISA (Catalog Number 41105) from PBL Biomedical Laboratories, Piscataway, N.J. Results are expressed in pg/mL.
# The TNF-α concentration is determined by ORIGEN M-Series Immunoassay and read on an IGEN M-8 analyzer from BioVeris Corporation, formerly known as IGEN International, Gaithersburg, Md. […]
# Analysis of the data has two steps. First, the greater of the mean DMSO (DMSO control wells) or the experimental background (usually 20 pg/mL for IFN-α and 40 pg/mL for TNF-α) is subtracted from each reading. If any negative values result from background subtraction, the reading is reported as
# “*”, and is noted as not reliably detectable. […] The adjustment ratio is the area of the reference compound in the new experiment divided by the expected area of the reference compound based on the past 61 experiments (unadjusted readings). […]
# [2] = Solubility in normal saline and phosphate buffered saline (saturated solutions, 25° C., 7 days, HPLC); type: physicochemical; details: for Solubility Fold Increase: Example 6 over IRM2; for solubility at 7 days: thermodynamic from solid
# Method: The solubility of IRM2 and the IRM-polymer complex exemplified in Example 6 was determined in normal saline and phosphate buffered saline (PBS) at pH 7.4. Each compound was added to each medium until saturation had been reached. Vials containing the saturated solutions were capped and placed into a shaking water bath at 25° C. After 7 days the saturated solutions were filtered and analyzed for compound content on an HPLC using a Zorbax Bonus-RP 150×4.6 mm 5 μm particle size column. IRM2 was eluted with a 25:75 ratio of 0.05% trifuoro-acetic acid (TFA) in Acetonitrile to 0.1% TFA in water. Example 6 was eluted with a 10:90 ratio of 0.05% TFA in Acetonitrile to 0.1% TFA in water for three minutes, gradient to a 75:25 ratio of 0.05% TFA in Acetonitrile to 0.1% TFA in water for seven minutes and held at the 75:25 ratio for eight minutes. All HPLC runs were set at a flow rate of 1 mL/min, 20 μL injection volume, and a 254 nm UV detection wavelength. Quantitation was performed against external standards. Results are shown in Table 5 expressed in millimolar (mM) and solubility fold increase of Example 6 over IRM2.
# [3] = Liberation of IRM1 from IRM-polymer complex in buffered saline at 37° C., measured by HPLC; type: physicochemical; details: 0.1 mg/ml
# Method: Samples were placed in a thermostated autosampler with the temperature controlled at 37° C. Samples were injected periodically over the course of the experiment and the % of IRM1 liberated was measured by an HPLC system equipped with a thermostatted autosampler set at 37° C. and a Zorbax SB C18, (3.0×150 mm), 3.5 μm particle size column with a column temperature of 40° C. Samples were eluted with a mobile phase of 1% acetic acid in water and methanol. The mobile phase was run at a ratio of 55:45 of 1% acetic acid in water to methanol for five minutes, gradient to 5:95 for ten minutes, held at 5:95 for five minutes, gradient to 55:45 in less than a minute, and held at 55:45 for ten minutes. All HPLC runs were set at a flow rate of 0.5 mL/min, 20 μL injection volume, and a 254 nm UV detection wavelength. The % IRM1 was determined by normalizing the IRM1 peak area by the total peak area of the chromatogram.
# [4] = normal saline, saline or isotonic, Saline, 25° C.
structure (smiles),measurement,setting,value
CCCCc1nc2c(N)nc3ccccc3c2n1CCCCNC(=O)CCOCCOCCOCCOCCOCCOCCOCCOCCOCCOCCOCCOCCOCCOCCOCCOCCOCCOCCOCCOCCOCCOCCOCCOCCOCCOCCOCCOCCOCCOCCOCCOCCOCCOCCOCCOCCOCCOCCOCCOCCOCCOCCOCCOCCOCCOC [Example 6],Minimum Effective Concentration (µM) IFN-α,[1],30 µM
same,Minimum Effective Concentration (µM) TNF,[1],> 30 µM
same,Solubility Fold Increase,"[2]; Phosphate Buffered Saline, pH 7.4",75.97
same,Solubility Fold Increase,[2]; Saline,142.50
same,solubility at 7 days,"[2]; aqueous buffer, Phosphate Buffered Saline, pH 7.4, 25° C.",5590 µM
same,solubility at 7 days,[2]; [4],5970 µM
CCOCc1nc2c(NC(=O)CCOCCOCCOCCOCCOCCOCCOCCOCCOCCOCCOCCOCCOCCOCCOCCOCCOCCOCCOCCOCCOCCOCCOCCOCCOCCOCCOCCOCCOCCOCCOCCOCCOCCOCCOCCOCCOCCOCCOCCOCCOCCOCCOCCOCCOCCOC)nc3ccccc3c2n1CC(C)(C)O [Example 7],Minimum Effective Concentration (µM) IFN-α,[1],3.33 µM
same,Minimum Effective Concentration (µM) TNF,[1],30 µM
same,% IRM1,"[3]; Citrate Buffered Saline, pH 4, 37° C., time 0 hr",2.9%
same,% IRM1,"[3]; Citrate Buffered Saline, pH 4, 37° C., time 6 hr",5.7%
same,% IRM1,"[3]; Citrate Buffered Saline, pH 4, 37° C., time 10 hr",7.4%
same,% IRM1,"[3]; Citrate Buffered Saline, pH 4, 37° C., time 13 hr",9.4%
same,% IRM1,"[3]; Citrate Buffered Saline, pH 4, 37° C., time 17 hr",10.6%
same,% IRM1,"[3]; Citrate Buffered Saline, pH 4, 37° C., time 20 hr",12.1%
same,% IRM1,"[3]; Citrate Buffered Saline, pH 4, 37° C., time 23 hr",13.0%
same,% IRM1,"[3]; Citrate Buffered Saline, pH 4, 37° C., time 28 hr",16.5%
same,% IRM1,"[3]; Citrate Buffered Saline, pH 4, 37° C., time 30 hr",17.1%
same,% IRM1,"[3]; Phosphate Buffered Saline, pH 7.4, 37° C., time 1 hr",1.3%
same,% IRM1,"[3]; Phosphate Buffered Saline, pH 7.4, 37° C., time 5 hr",1.5%
same,% IRM1,"[3]; Phosphate Buffered Saline, pH 7.4, 37° C., time 10 hr",1.7%
same,% IRM1,"[3]; Phosphate Buffered Saline, pH 7.4, 37° C., time 13 hr",1.8%
same,% IRM1,"[3]; Phosphate Buffered Saline, pH 7.4, 37° C., time 18 hr",1.9%
same,% IRM1,"[3]; Phosphate Buffered Saline, pH 7.4, 37° C., time 20 hr",2.1%
same,% IRM1,"[3]; Phosphate Buffered Saline, pH 7.4, 37° C., time 23 hr",2.1%
same,% IRM1,"[3]; Phosphate Buffered Saline, pH 7.4, 37° C., time 27 hr",2.3%
same,% IRM1,"[3]; Phosphate Buffered Saline, pH 7.4, 37° C., time 30 hr",2.4%
"CCCCc1nc2c(N)nc3ccccc3c2n1CCCCNC(C)=O [IRM 2, N-[4-(4-Amino-2-butyl-1H-imidazo[4,5-c]quinolin-1-yl)butyl]acetamide, reference compound]",solubility at 7 days,[2]; [4],40 µM
same,solubility at 7 days,"[2]; phosphate buffered saline (PBS), aqueous buffer, Phosphate Buffered Saline, pH 7.4, 25° C.",70 µM
